Data as given in publication PMC7954794, “Protein context shapes the specificity of SH3 domain-mediated interactions in vivo” (Nature Communications, 2021).

Columns and labels:
Type in all cases: cell-based, Saccharomyces cerevisiae
ABP1 = assay: DHFR-PCA on solid medium, bait ABP1 (Fig. 1B); conditions: bait ABP1, label = prey; for medrep (log2 median colony size normalized to plate background, PCA score): 2-4 replicates
From the text: Supplement 41467_2021_21873_MOESM8_ESM.xlsx, sheet "Fig1B" | column: medsize; medrep; Ratio; Score

Abp1 PPIs = assay: DHFR-PCA of Abp1 SH3-swapped baits (Fig. 2B-D, S2C, S2F); conditions: Fig2B; bait ABP1, label = prey; Replicates 4
From the text: Having determined that multiple PPIs require SH3s, we asked whether the latter establish PPI specificity independently from their host proteins by swapping domains (Fig. 2A). Using the second round of genome editing, we individually replaced Abp1 SH3 with the 27 yeast SH3s and 3 human Abp1 orthologs’ SH3s (CTTN, HCLS1, and DBNL, Fig. 2B). The reintroduction of its own SH3 (Abp1SH3 in Abp1) reconstitutes almost perfectly Abp1’s interaction profile (Kendall’s τ = 0.93, Fig. 2B). […] No homologous SH3 domain fully re-establishes the normal Abp1 PPI profile (Fig. 2B and Supplementary Fig. 2C). However, we observe a significant correlation (cophenetic correlation = 0.20, p value = 0.005, Fig. 2C) between the similarity of PPI profiles (Fig. 2B) and the sequence similarity of the SH3s. […] Nonetheless, a subset of SH3-dependent PPIs is only observed with the endogenous domain. For instance, Hua2 and App1, both well-characterized partners of Abp1[14],[18],[19], are only detected when Abp1 contains its own SH3 (WT or swapped via editing). A given SH3 may therefore not be fully replaceable with other paralogous or orthologous domains. This pattern is confirmed by cellular growth phenotypic analyses (Supplementary Fig. 2D, E). PPIs, SH3 sequence similarity, and growth profiles under stress conditions are correlated (Supplementary Fig. 2D, E). This relationship is particularly clear when analyzing growth on media supplemented with hygromycin.
The stuffing of YSC84 SH3 rendered the strain sterile and was therefore not used for this study as the assays require crosses. For genes containing two SH3s (BZZ1 and BEM1), a combination of this first stuffer with a second one ([…]) coding for a highly similar linker ([…]) was used, which allowed targeting each SH3 position independently. The two N-terminal domains of SLA1, which are separated by six nucleotides, were stuffed by a single stuffer. Cells containing pCAS were selected via the G418 resistance cassette from the plasmid on YPD plates (YPD + NAT 100 μg/ml (DHFR F[1,2] selection) + G418 200 µg/mL (Bioshop Canada)). Colonies were randomly selected and grown in YPD media without G418 to allow plasmid loss. The correct insertion of the stuffer was validated by PCR and Sanger sequencing. The SH3-swapped, -shuffled, and -mutated strains were constructed following a second CRISPR–Cas9 editing step with the same procedures. The stuffer sequences were targeted by specific gRNAs (one gRNA per stuffer) and replaced by PCR amplified specific SH3 (with 40 bp homology arms) or libraries of mutated SH3 domains for Deep Mutational Scanning (DMS) with 78 bp flanking homology regions. Validation of the SH3 domain insertions was done as we previously described except for DMS libraries (see below).
The overall DHFR-PCA pipeline is based on Tarassov et al.[43] and the procedures have also been published as a visualized protocol. The screens were performed with robotically manipulated pin tools (BM5-SC1, S&P Robotics Inc.). First, the preys were cherry-picked from 96-well plates to omnitrays in a 384 format on YPD + HPH solid media. Plates were then combined into the 1536 format on YPD + HPH. The array was constituted of 575 preys previously shown to interact physically with at least one SH3-containing protein as reported in BioGRID V3.4.16 along with 40 negative controls. The prey array comprised a border of control strains of two rows and two columns corresponding to the PPI between LSM8-DHFR F[1,2] and CDC39-DHFR F[3]. This double border was used to remove border effects. Preys are present in duplicate at a randomized position in the 1536 array (except for YAL041W which is present four times per array). Baits were crossed with two prey plates, resulting in four independent bait–prey tests for each PPI. Baits were grown in liquid YPD + NAT and then transferred on solid YPD + NAT omnitrays. They were then replicated on YPD + NAT omnitrays in 1536 array format. […]

[1] = tested on: 575 putative partners (preys) of 22 WT SH3-containing proteins; assay: DHFR-PCA on solid medium, WT and SH3-deleted baits (Fig. 1B); set-up: key to Score: 0: SH3-independent; 1: SH3-dependent PPIs; 2: SH3-inhibited PPIs; conditions: for medrep (log2 median colony size normalized to plate background, PCA score): label = prey; for Ratio (SH3-deleted/WT medrep): only significant differences shown, PPIs completely lost have a ratio of 0.1, gained PPIs 2.5
From the text: To assess the requirement of SH3 domains for PPIs in vivo, we first measured binary interactions between 22 WT SH3-containing proteins (Supplementary Fig. 1A) as baits and 575 putative partners from their interconnected signaling networks using the dihydrofolate reductase protein–fragment complementation assay (DHFR-PCA) in the budding yeast Saccharomyces cerevisiae. About 33% (202/607) of the PPIs detected were described before, mostly by direct methods (Supplementary Fig. 1B, C)[11]. We repeated the experiments with baits in which the SH3s were individually replaced with a flexible linker by genome editing (SH3 domain deletion/stuffing, Fig. 1A). The stuffer DNA sequence ([…]) codes for a small flexible poly-Gly with Ser peptide ([…]) that is inspired by previous experiments[12],[13]. About a third of the SH3-containing protein interactome is qualitatively or quantitatively SH3-dependent (171 PPIs out of 607, Fig. 1B and Supplementary Fig. 1B, C). We validated the vast majority of the quantitative changes in low-throughput experiments and excluded that this is simply due to changes in protein abundance in most cases (Supplementary Fig. 1D–G). SH3-binding motifs[14] are more frequent in the SH3-dependent PPI partners when compared to sequences from random proteins, SH3-independent PPI partners or PPI partners that are stronger or gained following SH3 deletions (p values = 1.5 × 10^−17, 0.0038 and 2.1 × 10^−08, respectively; Mann–Whitney test, one-tailed, Fig. 1C). The changes we measure are therefore enriched for PPIs that depend on the direct interactions of the domains with the PPI partners.
The complete list of strains, primers, and gRNAs used in this study can be found in Supplementary Tables 1–3. All constructed yeast strains were validated by polymerase chain reaction (PCR) and confirmed by Sanger sequencing of the locus of interest. Bait strains for the DHFR-PCA experiments were constructed as follows. The genes of interest were fused at their genomic 3′ end by replacing the stop codon with a linker ([…]), the DHFR F[1,2] followed by a smaller linker (GGGGS), a 1× FLAG tag ([…]) and the NATMX4 resistance cassette via homologous recombination (all amplified from pAG25-DHFR[1,2]-linker-FLAG). The set of 615 prey strains (DHFR F[3] fusions in the BY4742 background) were retrieved from the Yeast Protein Interactome Collection[43] with the exception of 73 that were reconstructed (Supplementary Tables 1 and 2). Knockout strains were taken from the yeast knockout collection except for ABP1, BEM1, BZZ1, and SLA1, which were reconstructed by replacing the ORFs with the NATMX4 resistance cassette by homologous recombination in the BY4741 background.
Yeast SH3 domain genomic sequences were replaced by CRISPR–Cas9 genome editing. Each SH3 domain (as defined by the SMART database V8.0 except for Ysc84 SH3 (as defined by PROSITE), see Source Data for all SH3 sequences and Supplementary Table 1 for primers used) was specifically targeted by one gRNA[46]. Yeast competent cells were co-transformed with a pCAS plasmid (Addgene plasmid 60847[47]) expressing both the gRNA of interest and Streptococcus pyogenes Cas9[46] and a donor DNA sequence (stuffer) with 60 bp homology arms surrounding the SH3 DNA sequence. The Stuffer DNA was either PCR amplified or digested from a plasmid. The stuffer DNA sequence ([…]) codes for a small flexible linker ([…]) inspired by protein linkers used in structural biology[12],[13]. This type of linker is frequently used for fusing proteins without affecting the structure of the linked proteins.
The overall DHFR-PCA pipeline is based on Tarassov et al.[43] and the procedures have also been published as a visualized protocol. The screens were performed with robotically manipulated pin tools (BM5-SC1, S&P Robotics Inc.). First, the preys were cherry-picked from 96-well plates to omnitrays in a 384 format on YPD + HPH solid media. […]

[2] = bait SLA1-2, DHFR-PCA, Replicates 4 (2 for YCR009C, YDR388W)
[3] = bait SLA1-3, DHFR-PCA, Replicates 4 (2 for YCR009C, YDR388W, YIL033C)

Molecule | medrep (log2 median colony size normalized to plate background, PCA score) (ABP1) | Ratio (SH3-deleted/WT medrep) (ABP1; only significant differences showed, PPIs completely lost have a ratio of 0.1 and the gained PPIs 2.5) | medrep (log2 median colony size normalized to plate background) (Abp1 PPIs) | medsize (median colony size) (Abp1 PPIs) | medrep (log2 median colony size normalized to plate background, PCA score) [1, 2] | Score ([1]; bait SLA1-2, label = prey) | Ratio (SH3-deleted/WT medrep) ([1]; bait SLA1-2, label = prey) | medrep (log2 median colony size normalized to plate background, PCA score) [1, 3] | Score ([1]; bait SLA1-3, label = prey) | Ratio (SH3-deleted/WT medrep) ([1]; bait SLA1-3, label = prey)
YBL071W-A (protein, UniProt Q3E840 1-82, looked up) Diphthamide biosynthesis …: MSTYDEIEIEDMTFEPENQMFTYPCPCGDRFQIYLDDMFEGEKVAVCPSCSLMIDVVFDKEDLAEYYEEAGIHPPEPIAAAA | 1.99 | 1.369 | 1.454 | 388 | – | – | – | – | – | –
YIL095W (protein, UniProt P40494 1-810, looked up) Actin-regulating kinase PRK1: MNTPQISLYEPGTILTVGSHHAKIIKYLTSGGFAQVYTAEISPPDPYSNANIACLKRVIVPHKQGLNTLRAEVDAMKLLRNNKHVVSYIDSHAARSVNGIAYEVFVLMEFCERGGLIDFMNTRLQNRLQESEILEIMSQTVQGITAMHALQPPLIHRDIKIENVLISHDGLYKVCDFGSVSGVIRPPRNTQEFNYVQHDILTNTTAQYRSPEMIDLYRGLPIDEKSDIWALGVFLYKICYYTTPFEKSGEAGILHARYQYPSFPQYSDRLKNLIRLMLMEAPSQRPNICQVLEEVSRLQNKPCPIRNFYLLRAMNQNANTQLAGEPSSTTYVPTQKFIPVQSLQSINQPPNMMPVTHVSTTPNLGTFPISINDNNKTEVTAHAGLQVGSHSNLTSPLMKTKSVPLSDEFASLYYKELHPFQKSQTFKSVESFQSPQRKSMPPLSLTPVNNDIFDRVSAINRPNNYVDSETQTIDNMAVPNLKLSPTITSKSLSSTKEIAAPDNINGSKIVRSLSSKLKKVITGESRGNSPIKSRQNTGDSIRSAFGKLRHGFTGNSVNNSRSASFDNNNVNGNGNNTNRRLVSSSTSSFPKFNSDTKRKEESDKNQRLEKRRSMPPSILSDFDQHERNNSRTGSRDYYRSHSPVKKTQASAKTTSKPTLIPDNGNVNINQEKKESIQRRVHNLLKSSDDPVTYKSASGYGKYTDIGTETSNRHSSVRITPITEEKFKKTLKDGVLDIKTKSNGKDKSRPPRPPPKPLHLRTEIQKIRNFSRLQSKKLPIERISSEATETIVDVNVDDLEADFRKRFPSKV | 4.25 | – | – | – | 1.8519 | 1 | 0.1 | 1.8519 | 0 | –
YJL201W (protein, UniProt P32525 1-599, looked up) Protein ECM25: MIDINVNNIFFRSYSVDPNSGHAIYVFDSTYLPASDEIGDKQVYDLLINALMDRLVMKLPQAPYSLVIFSSGFSQRKISWVYGIKMFAKLPKETKFYLQKIFIVHESFFVRSVYQVISNAMNFNFLDSKDSQHDFPSLVHVLDLTSLSELIDITRLRISLNVYLYDYQIREHINVPEEYYNRLTPLAIRQYRQLVFDKIFKKLQNDALLCELIFQKPGNYKKVNIFLDIIKRNNYIDLSQWDIYSLASVWLNYFIKNKAKPLIPIELIPLPIVDDLKFTSETFRKIIKFNQYQDLFMVIIPFFNRIIAHGESTKHDSRTLSKALTPALCKEKLSMMTNDRLAIGSRYIKNLLDFFPEIAKEISSPPSSVSSSSTIPVLPKPRKSSPTRYSELGCLTLPRSRSPSPQRSVTSPTYTPVALQNTPVLKPKSSSRNVSSPSFNAKPPLPIKAVTRPQLSLTSNSNTDLALASSSTDTLSSPTKTPSADSLPLSNSSTDLTISDNIKEMVKDEPAKDKNSVETDIFVQQFESLTLVQNAKIKKFDKELQEKKKKNETTSKTADKFSQKGYSDIKASNKVSRLAALYEERLQGLQVMNEMKQRW | 3.816 | – | – | – | 1.384 | 1 | 0.1 | 1.384 | 0 | –
YGR037C (protein, UniProt P31787 1-87, looked up) Acyl-CoA-binding protein: MVSQLFEEKAKAVNELPTKPSTDELLELYALYKQATVGDNDKEKPGIFNMKDRYKWEAWENLKGKSQEDAEKEYIALVDQLIAKYSS | 3.115 | – | – | – | 1.385 | 1 | 0.1 | 1.385 | 1 | 0.1
